The record followed here is patent publication US11547739B2, “Peptides and methods related to ICOS signaling” (priority 2015, dated 2023).

For one series, the system named is Tbk1 transcript. Nature of the series: In vivo knockdown efficiency by quantitative PCR in sorted transduced cells. More on the design: species or system mouse. To be noted: sorted shTbk1+CD4+ T cells. The method, then: Isolation of mRNA, cDNA synthesis and real-time PCR. Total RNA was extracted from sorted CD4^+ Ametrine- and CD4^+ Ametrine^+ cells using the RNeasy kit (Qiagen). RNA was used to synthesize cDNA by the SuperScript III FirstStrand cDNA synthesis kit (Life Technologies). […]; Relative gene expression levels were determined in triplicates, calculated using the 2-° Act method and normalized to the level of ACTB.

Series [1] deals with T1, TBK1 (Homo sapiens, UniProt Q9UHD2).
T1 sequence (Q9UHD2 1-729): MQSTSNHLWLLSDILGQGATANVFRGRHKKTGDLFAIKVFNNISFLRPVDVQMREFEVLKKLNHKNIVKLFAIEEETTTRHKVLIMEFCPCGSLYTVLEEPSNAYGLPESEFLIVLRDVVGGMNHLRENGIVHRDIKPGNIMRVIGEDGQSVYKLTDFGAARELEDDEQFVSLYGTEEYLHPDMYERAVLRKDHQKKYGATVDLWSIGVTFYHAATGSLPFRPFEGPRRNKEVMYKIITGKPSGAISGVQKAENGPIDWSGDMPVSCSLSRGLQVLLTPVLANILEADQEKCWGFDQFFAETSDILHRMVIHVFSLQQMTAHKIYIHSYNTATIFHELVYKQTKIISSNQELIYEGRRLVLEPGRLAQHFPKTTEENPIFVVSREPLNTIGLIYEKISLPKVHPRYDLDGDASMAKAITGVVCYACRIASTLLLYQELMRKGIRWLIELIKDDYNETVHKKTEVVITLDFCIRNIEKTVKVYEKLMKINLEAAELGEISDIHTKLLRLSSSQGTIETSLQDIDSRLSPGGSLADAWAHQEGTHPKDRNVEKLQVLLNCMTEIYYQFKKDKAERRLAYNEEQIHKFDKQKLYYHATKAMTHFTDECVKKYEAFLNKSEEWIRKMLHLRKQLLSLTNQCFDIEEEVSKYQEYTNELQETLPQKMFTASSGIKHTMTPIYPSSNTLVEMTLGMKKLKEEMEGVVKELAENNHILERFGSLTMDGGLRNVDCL
The series is described as follows: Anti-FLAG immunoprecipitation of WT or mutated TRAF2/TRAF3 in HEK293T cells. To be noted: FLAG-tagged TRAF in HEK293T cells. Format: binding. Set-up: endogenous in cells. The method, then: (§1) Immunoprecipitation and immunoblotting. The human leukemic Jurkat T cell line, JTAg, was previously described (Li, J et al. J Immunol 2013, 191(1): 200-207; Rolf J et al., J Immunol 2010, 185(7): 4042-4052) and the HEK 293T cell line was obtained from ATCC. These cell lines have not been recently STR profiled but tested negative for mycoplasma contamination. JTAg cells in logarithmic growth phase were transfected with plasmid DNAs by electroporation and incubated for 24 hours. Transfection of HEK293T cells was carried out via liposomes-mediated transfection with plasmid DNAs. For experiments using primary mouse T cells, purified CD4+ T cells were activated in vitro with anti-mouse CD3 (clone 145-2C11) and CD28 (clone 37.51) for 48 hours prior to resting in the presence of IL-2 for another 48 hours. Transfected JTAg cells and preactivated mouse CD4^+ T cells were stimulated with anti-CD3 and anti-ICOS (clone C398.4A) monoclonal antibodies (mAbs) in the presence of a cross-linking antibody (Ab) for 2 minutes. […] The intensity of bands was measured using the ImageJ software (NIH). To determine the ratio of TBK1 to p85a, the band intensity on IP blots and WCL blots were measured for TBK1 and p85a, respectively, and the ratio was expressed as (IP TBK1)/(WCL TBK1): (IP p85a)/(WCL p85a).

A further series deals with Tfh cells. To be noted: mouse, in vivo.
Series [2] relates to GC B cells and plasma cells. It counts as in vivo, mouse. To be noted: KLH-gp61 in alum, 10 d.
Series [3] concerns the target T1, TBK1. The series is described as follows: ICOS immunoprecipitation and immunoblotting in transfected Jurkat (JTAg) T cells. It counts as binding. More on the design: endogenous in cells; host or cells: Jurkat JTAg T cells transfected with ICOS plasmids. Conditions: Jurkat (JTAg) cells stimulated with anti-CD3 plus -ICOS mAbs. The method, then: as §1
(Immunoblotting shows a protein as a band on a membrane.)

As for “shTbk1 (guide AAGACATAAAGTGCTTATTATG; expressed or natural sequence)”, the Tbk1 transcript reduced in the series on Tbk1 transcript is about 80%.

B1: WT TRAF2 (protein)
chain: MAAASVTPPGSLELLQPGFSKTLLGTKLEAKYLCSACRNVLRRPFQAQCGHRYCSFCLASILSSGPQNCAACVHEGIYEEGISILESSSAFPDNAARREVESLPAVCPSDGCTWKGTLKEYESCHEGRCPLMLTECPACKGLVRLGEKERHLEHECPERSLSCRHCRAPCCGADVKAHHEVCPKFPLTCDGCGKKKIPREKFQDHVKTCGKCRVPCRFHAIGCLETVEGEKQQEHEVQWLREHLAMLLSSVLEAKPLLGDQSHAGSELLQGCESLEKKTATFENIVCVLNREVERVAMTAEACSRQHRLDQDKIEAPSSKVQQLERSIGLKDLAMADLEQKVSEMEASTYDGVFIWKISDFARKRQEAVAGRIPAIFSPAFYTRRYGYKMCLRIYLNGDGTGRGTHLSLFFVVMKGPNDALLRWPFNQKVTLMLLDQNNREHVIDAFRPDVTSSSFQRPVNDMNIASGCPLFCPVSKMEAKDSYVRDDAIFIKAIVDLTGL
modifications: left off: small tags and cut ends
As for B1, in the series with TBK1 [1], the “interaction with TBK1” value was “interacted strongly”.

B2: WT ICOS (protein)
chain: EINGSANYEMFIFHNGGVQILCKYPDIVQQFKMQLLKGGQILCDLTKTKGSGNTVSIKSLKFCHSQLSNNSVSFFLYNLDHSHANYYFCNLSIFDPPPFKVTLTGGYLHIYESQLCCQLKFWLPIGCAAFVVVCILGCILICWLTKKKYSSSVHDPNGEYMFMRAVNTAKKSRLTDVTL
Turning to B2, in the series with Tfh cells, the “CXCR5+SLAMlo Tfh cell population” value is “differentiated”, the “differentiation of CXCR5+PD1hi GC Tfh cells” value is reported as “restored” and the “nascent CXCR5+Bcl6+ Tfh cells” value is “able to differentiate”. Moreover, the “B cell differentiation (Fas+GL7+ GC B cells and class-switched IgD-CD138+ plasma cells)” value in series [2] is given as “supported the differentiation”. The “interaction with endogenous TBK1 in ICOS IPs” value with TBK1 [3] is “interacted strongly”.

B3: TRAF3 (protein, UniProt Q13114 1-568, looked up)
TNF receptor-associated …: MESSKKMDSPGALQTNPPLKLHTDRSAGTPVFVPEQGGYKEKFVKTVEDKYKCEKCHLVLCSPKQTECGHRFCESCMAALLSSSSPKCTACQESIVKDKVFKDNCCKREILALQIYCRNESRGCAEQLMLGHLLVHLKNDCHFEELPCVRPDCKEKVLRKDLRDHVEKACKYREATCSHCKSQVPMIALQKHEDTDCPCVVVSCPHKCSVQTLLRSELSAHLSECVNAPSTCSFKRYGCVFQGTNQQIKAHEASSAVQHVNLLKEWSNSLEKKVSLLQNESVEKNKSIQSLHNQICSFEIEIERQKEMLRNNESKILHLQRVIDSQAEKLKELDKEIRPFRQNWEEADSMKSSVESLQNRVTELESVDKSAGQVARNTGLLESQLSRHDQMLSVHDIRLADMDLRFQVLETASYNGVLIWKIRDYKRRKQEAVMGKTLSLYSQPFYTGYFGYKMCARVYLNGDGMGKGTHLSLFFVIMRGEYDALLPWPFKQKVTLMLMDQGSSRRHLGDAFKPDPNSSSFKKPTGEMNIASGCPVFVAQTVLENGTYIKDDTIFIKVIVDTSDLPDP
Regarding B3, in the series with TBK1 [1], the “interaction with TBK1” value is listed as “interacted strongly”.
